Results on four molecules are retold here after article doi:10.1101/2020.02.01.930206 (bioRxiv, 2020).

B1: full-length mouse DNA2 (enzyme)
chain: MEPLDELDLLLLEEDGGAEAVPRVELLRKKADALFPETVLSRGVDNRYLVLAVETSQNERGAEEKRLHVTASQDREHEVLCILRNGWSSVPVEPGDIVHLEGDCTSEPWIIDDDFGYFILYPDMMISGTSVASSIRCLRRAVLSETFRGSDPATRQMLIGTILHEVFQKAISESFAPERLQELALQTLREVRHLKEMYRLNLSQDEILCEVEEYLPSFSKWAEDFMRKGPSSEFPQMQLSLPSDGSNRSSPCNIEVVKSLDIEESIWSPRFGLKGKIDVTVGVKIHRDCKMKYKVMPLELKTGKESNSIEHRSQVVLYTLLSQERREDPEAGWLLYLKTGQMYPVPANHLDKRELLKLRNWLAASLLHRVSRAAPGEEARLSALPQIIEEEKTCKYCSQIGNCALYSRAVEEQGDDASIPEAMLSKIQEETRHLQLAHLKYFSLWCLMLTLESQSKDNRKTHQSIWLTPASELEESGNCVGNLVRTEPVSRVCDGQYLHNFQRKNGPMPATNLMAGDRIILSGEERKLFALSKGYVKKMNKAAVTCLLDRNLSTLPATTVFRLDREERHGDISTPLGNLSKLMESTDPSKRLRELIIDFREPQFIAYLSSVLPHDAKDTVANILKGLNKPQRQAMKRVLLSKDYTLIVGMPGTGKTTTICALVRILSACGFSVLLTSYTHSAVDNILLKLAKFKVGFLRLGQSHKVHPDIQKFTEEEICRSRSIASLAHLEELYNSHPIVATTCMGINHPIFSRKTFDFCIVDEASQISQPVCLGPLFFSRRFVLVGDHQQLPPLVVNREARALGMSESLFKRLERNESAVVQLTVQYRMNRKIMSLSNKLTYAGKLECGSDRVANAVLALPNLKDARLSLQLYADYSDSPWLAGVLEPDNPVCFLNTDKVPAPEQVENGGVSNVTEARLIVFLTSTFIKAGCSPSDIGVIAPYRQQLRIISDLLARSSVGMVEVNTVDKYQGRDKSLILVSFVRSNEDGTLGELLKDWRRLNVALTRAKHKLILLGSVSSLKRFPPLGTLFDHLNAEQLILDLPSREHESLSHILGDCQRD

For assay [1], the target named is full-length human CIA targeting complex (MMS19-CIAO1-CIAO2B) (human, UniProt Q96T76;O76071;Q9Y3D0). As to the kind of experiment: cryo-EM structure.
The assay “full-length mouse DNA2” addresses B1. In words: cryo-EM structure.
Assay [2] deals with T1, human primase small subunit PriS (human, UniProt P49642 1-420).
T1 sequence: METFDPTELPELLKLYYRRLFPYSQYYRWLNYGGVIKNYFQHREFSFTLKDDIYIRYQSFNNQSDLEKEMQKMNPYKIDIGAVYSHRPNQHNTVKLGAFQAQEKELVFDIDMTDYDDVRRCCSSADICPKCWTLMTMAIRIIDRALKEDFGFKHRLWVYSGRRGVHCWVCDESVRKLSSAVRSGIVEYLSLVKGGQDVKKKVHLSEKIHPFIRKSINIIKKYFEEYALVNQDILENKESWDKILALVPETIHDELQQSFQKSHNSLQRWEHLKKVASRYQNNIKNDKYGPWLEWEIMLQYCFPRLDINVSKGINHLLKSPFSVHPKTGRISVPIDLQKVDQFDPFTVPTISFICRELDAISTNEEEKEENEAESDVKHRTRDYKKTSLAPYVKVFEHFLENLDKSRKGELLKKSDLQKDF
As to the kind of experiment: cryo-EM structure.

Assay [3] deals with T2, Drosophila melanogaster CIAO1-CIAO2B core complex (Drosophila melanogaster, UniProt Q7K1Y4;Q9VTC4).
T2 sequence 1: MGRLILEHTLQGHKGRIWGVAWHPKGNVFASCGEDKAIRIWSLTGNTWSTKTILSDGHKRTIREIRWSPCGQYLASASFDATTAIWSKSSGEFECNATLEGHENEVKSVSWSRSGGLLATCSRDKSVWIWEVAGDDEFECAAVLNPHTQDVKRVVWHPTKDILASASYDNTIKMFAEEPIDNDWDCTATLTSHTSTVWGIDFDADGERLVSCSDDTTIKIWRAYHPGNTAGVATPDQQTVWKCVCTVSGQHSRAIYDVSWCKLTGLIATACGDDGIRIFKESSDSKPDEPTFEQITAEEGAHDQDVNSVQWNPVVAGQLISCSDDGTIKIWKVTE
T2 sequence 2: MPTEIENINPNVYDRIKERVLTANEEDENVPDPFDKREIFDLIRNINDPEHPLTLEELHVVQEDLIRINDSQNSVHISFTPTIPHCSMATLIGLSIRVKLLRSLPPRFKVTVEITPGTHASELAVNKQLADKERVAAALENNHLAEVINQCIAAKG
As to the kind of experiment: crystal structure.

Assay [4] has as its target T3, Drosophila melanogaster CIAO2B (Drosophila melanogaster, UniProt Q9VTC4 1-156).
T3 sequence: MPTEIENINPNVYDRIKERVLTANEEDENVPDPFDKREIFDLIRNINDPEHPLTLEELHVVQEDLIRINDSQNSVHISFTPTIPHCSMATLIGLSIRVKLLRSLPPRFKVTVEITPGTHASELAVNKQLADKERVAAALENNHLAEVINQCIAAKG
As to the kind of experiment: crystal structure.

Assay [5] concerns the target T4, human MMS19 (subunit of the purified CTC) (human, UniProt Q96T76 1-1030).
T4 sequence: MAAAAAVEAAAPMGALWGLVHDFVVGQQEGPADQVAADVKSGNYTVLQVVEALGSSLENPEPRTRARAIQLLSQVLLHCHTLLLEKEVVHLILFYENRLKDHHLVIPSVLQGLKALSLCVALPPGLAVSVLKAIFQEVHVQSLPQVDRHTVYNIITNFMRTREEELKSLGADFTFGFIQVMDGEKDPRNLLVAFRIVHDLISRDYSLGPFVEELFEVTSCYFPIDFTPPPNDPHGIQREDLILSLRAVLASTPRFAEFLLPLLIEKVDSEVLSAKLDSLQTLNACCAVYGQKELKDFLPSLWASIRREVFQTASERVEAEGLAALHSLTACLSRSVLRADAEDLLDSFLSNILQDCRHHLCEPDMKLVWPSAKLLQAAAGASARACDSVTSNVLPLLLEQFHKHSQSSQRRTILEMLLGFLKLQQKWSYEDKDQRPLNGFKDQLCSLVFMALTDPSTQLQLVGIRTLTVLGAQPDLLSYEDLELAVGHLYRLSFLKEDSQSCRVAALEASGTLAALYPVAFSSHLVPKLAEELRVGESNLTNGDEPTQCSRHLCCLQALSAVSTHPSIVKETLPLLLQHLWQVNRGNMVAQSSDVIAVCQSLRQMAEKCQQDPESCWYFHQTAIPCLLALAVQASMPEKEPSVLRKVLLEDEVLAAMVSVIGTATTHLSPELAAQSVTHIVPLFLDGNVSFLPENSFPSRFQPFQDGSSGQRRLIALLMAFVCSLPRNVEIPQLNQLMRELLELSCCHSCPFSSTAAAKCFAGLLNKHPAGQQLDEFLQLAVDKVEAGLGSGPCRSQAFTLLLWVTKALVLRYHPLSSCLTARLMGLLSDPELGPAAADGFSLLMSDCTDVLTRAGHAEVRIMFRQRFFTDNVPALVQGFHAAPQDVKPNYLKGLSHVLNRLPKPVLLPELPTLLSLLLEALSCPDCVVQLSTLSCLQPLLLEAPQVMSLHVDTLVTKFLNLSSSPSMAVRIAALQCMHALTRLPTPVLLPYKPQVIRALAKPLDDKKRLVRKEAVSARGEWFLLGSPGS
In words: cryo-EM structure.

Sequence of full-length human CIA targeting complex (MMS19-CIAO1-CIAO2B) (O76071 whole entry, chain 2 of 2): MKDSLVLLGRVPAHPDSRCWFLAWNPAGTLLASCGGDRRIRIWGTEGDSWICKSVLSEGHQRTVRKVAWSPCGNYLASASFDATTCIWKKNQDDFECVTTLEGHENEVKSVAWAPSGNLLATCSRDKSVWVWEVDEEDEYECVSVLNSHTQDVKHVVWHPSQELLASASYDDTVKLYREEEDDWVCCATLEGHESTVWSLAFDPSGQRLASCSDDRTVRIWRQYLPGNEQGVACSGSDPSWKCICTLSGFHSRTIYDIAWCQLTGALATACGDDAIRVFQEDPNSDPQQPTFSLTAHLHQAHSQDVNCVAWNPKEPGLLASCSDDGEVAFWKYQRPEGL
Sequence of full-length human CIA targeting complex (MMS19-CIAO1-CIAO2B) (Q9Y3D0 whole entry, chain 3 of 2): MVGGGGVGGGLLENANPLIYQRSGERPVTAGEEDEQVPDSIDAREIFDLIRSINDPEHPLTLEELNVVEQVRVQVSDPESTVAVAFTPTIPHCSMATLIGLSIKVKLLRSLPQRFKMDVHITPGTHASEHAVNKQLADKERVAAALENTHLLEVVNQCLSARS

Take B1: the binding result in assay [1] was “binds”.

B2: human CIAO1 (subunit of the purified CTC) (natural protein)
chain: not shown
B2: the binding result (with full-length mouse DNA2; in assay [2]) was “binds” each time.

B3: C-terminal fragment of mouse MMS19 (residues 911-1031) (domain or fragment)
chain: ELPTLLSLLLEALSCPDSVVQLSTLSCLQPLLLEAPQIMSLHVDTLVTKFLNLSSSYSMAVRIAALQCMHALTRLPTSVLLPYKSQVIRALAKPLDDKKRLVRKEAVSARGEWFLLGSPGS
As for B3, the binding result in assay [3] and in assay [4] was “binds” throughout.

B4: human primase large subunit PriL (natural protein)
chain: MEFSGRKWRKLRLAGDQRNASYPHCLQFYLQPPSENISLIEFENLAIDRVKLLKSVENLGVSYVKGTEQYQSKLESELRKLKFSYRENLEDEYEPRRRDHISHFILRLAYCQSEELRRWFIQQEMDLLRFRFSILPKDKIQDFLKDSQLQFEAISDEEKTLREQEIVASSPSLSGLKLGFESIYKIPFADALDLFRGRKVYLEDGFAYVPLKDIVAIILNEFRAKLSKALALTARSLPAVQSDERLQPLLNHLSHSYTGQDYSTQGNVGKISLDQIDLLSTKSFPPCMRQLHKALRENHHLRHGGRMQYGLFLKGIGLTLEQALQFWKQEFIKGKMDPDKFDKGYSYNIRHSFGKEGKRTDYTPFSCLKIILSNPPSQGDYHGCPFRHSDPELLKQKLQSYKISPGGISQILDLVKGTHYQVACQKYFEMIHNVDDCGFSLNHPNQFFCESQRILNGGKDIKKEPIQPETPQPKPSVQKTKDASSALASLNSSLEMDMEGLEDYFSEDS
On to B4, for which the binding result in assay [5] was “binds”.
